Article PMC10714721
“And” between values parts separate entries of the source, which are not always exact repeats. Equal values may be shown once.

Target: histidine-tagged VfmH (Dickeya dadantii)
Test: not stated; oligomerization pattern of VfmH with or without c-di-GMP or ATP (Fig. S5); method not given

For histidine-tagged VfmH (natural protein), the stoichiometry N was 6 and 2 and 3.
